From paper PMC6283879, “Structural assembly of the megadalton-sized receptor for intestinal vitamin B12 uptake and kidney protein reabsorption” (Nature Communications, 2018)

How the values were obtained:
[1] = flow cytometry, cubilin surface expression, CHO K1; details: glycan lost; control: wild type AMN co-transfected with cubilin
[2] = biological target: the molecule itself; experiment: crystal structure; AMN(20–357) and cubilin(26–135) co-expressed in E. coli and co-purified; crystals at 4 °C, sitting drop, 1.5 M magnesium sulphate, 0.1 M MES pH 5.5; 2.3 Å, SAD phasing

Protein	localisation_or_trafficking [1]	stoichiometry N [2]
amnionless (AMN): S37A (protein) parent chain: MGVLGRVLLWLQLCALTQAVSKLWVPNTDFDVAANWSQNRTPCAGGAVEFPADKMVSVLVQEGHAVSDMLLPLDGELVLASGAGFGVSDVGSHLDCGAGEPAVFRDSDRFSWHDPHLWRSGDEAPGLFFVDAERVPCRHDDVFFPPSASFRVGLGPGASPVRVRSISALGRTFTRDEDLAVFLASRAGRLRFHGPGALSVGPEDCADPSGCVCGNAEAQPWICAALLQPLGGRCPQAACHSALRPQGQCCDLCGAVVLLTHGPAFDLERYRARILDTFLGLPQYHGLQVAVSKVPRSSRLREADTEIQVVLVENGPETGGAGRLARALLADVAENGEALGVLEATMRESGAHVWGSSAAGLAGGVAAAVLLALLVLLVAPPLLRRAGRLRWRRHEAAAPAGAPLGFRNPVFDVTASEELPLPRRLSLVPKAAADSTSHSYFVNPLFAGAEAEA	no change	–
amnionless (AMN): S37A/T41I (protein) parent chain: MGVLGRVLLWLQLCALTQAVSKLWVPNTDFDVAANWSQNRTPCAGGAVEFPADKMVSVLVQEGHAVSDMLLPLDGELVLASGAGFGVSDVGSHLDCGAGEPAVFRDSDRFSWHDPHLWRSGDEAPGLFFVDAERVPCRHDDVFFPPSASFRVGLGPGASPVRVRSISALGRTFTRDEDLAVFLASRAGRLRFHGPGALSVGPEDCADPSGCVCGNAEAQPWICAALLQPLGGRCPQAACHSALRPQGQCCDLCGAVVLLTHGPAFDLERYRARILDTFLGLPQYHGLQVAVSKVPRSSRLREADTEIQVVLVENGPETGGAGRLARALLADVAENGEALGVLEATMRESGAHVWGSSAAGLAGGVAAAVLLALLVLLVAPPLLRRAGRLRWRRHEAAAPAGAPLGFRNPVFDVTASEELPLPRRLSLVPKAAADSTSHSYFVNPLFAGAEAEA	no change	–
N-terminal fragment of cubilin (residues 26–135) (domain or fragment, human, UniProt O60494 26-135, looked up, The methods name 'human' before AMN only ('human AMN ... and the N-terminal fragment of cubilin'); Cloned into the NdeI site of multiple cloning site 2 of pACYCDuet-1; also called trimeric cubilin; source: also in E. coli lysate / His-tag column eluate with the AMN T41I mutant) GELELQRQKRSINLQQPRMATERGNLVFLTGSAQNIEFRTGSLGKIKLNDEDLSECLHQIQKNKEDIIELKGSAIGLPQNISSQIYQLNSKLVDLERKFQGLQQTVDKKV	–	3
